Measured values published in article PMC5360189 (Molecular cell, 2016).

B1: urea carboxylase (guanidine carboxylase) (Oleomonas sagaranensis) (protein)
chain: MFKKILIANRGEIAARVIKTARKMGIATVAVHSEADRFTLPVLAADEAICLGPAPAKESYLRAEAIVQACIDTGAEAVHPGYGFLSENAGFAEALAAKGIRFIGPRPEHLRDFGLKHTARALAEAAGVPLLPGTGILLSAEEALAAAHEIGYPVMLKSTAGGGGIGMSLCHDASELQARFEAVQRMASSSFGDARVYIERFVSTARHVEVQIFGDGKGNVVALGERDCSLQRRNQKVVEETPAPGLSPELRARLHAAAVALGKAVAYESAGTVEFIYDVARGDFSFLEVNTRLQVEHPVTESVFGVDLVEWMIRQAAGELLLPAQGSLVPRGAAIEVRLYAENPQANFRPQTGRLTEVAFPDDIRVDTWVATGTEVTPFYDPMLAKVIVTGADRPAAIAALSDALAKTKVWGIETNLAYLRAIAASDVFTSGAVSTAALGQFVFTAPTIEVIVAGAQTSVQDWPGRLGLWDVGVPPSGPFDDRSFRLANRILGNAEGAAGLECTLSGPTLKFHGDALIALAGAEMPAALDGVAVPMLTAIPVKAGQTLSLGQIKGAGQRTYLAVRGGIDGPKFLGARACFSLGQFGGHATGVLKAGDTLHIAAETAGEPMPADEKPLITRDWVIGVHYGPHGAPDFFQDADIDDLFAATYEVHFNSARTGVRLIGPKPRWARADGGEAGLHPSNIHDNAYAIGAIDFTGDMPIILGPDGPSLGGFVCPAVIARDELWKAGQLKPGDKVRFVPHGMAAPQVITSKDIGTPILGTIDGGPVPVVYRRAGDDYLLVEYGPMVLDIALRLRIHLLAQAVREARLPAIIDLTPGIRSLQIHYDSRVLKTATLVAALREIEAGLPPAEAVKVPSRIVHLPLSWNDPSIQLAARKYQELVRPNAPWCPSNIEFIRRINGLGSVDDVQNIIFDASYLVLGLGDVYLGAPVATPVDPRHRLVTTKYNPARTWTPENAVGIGGAYMCIYGMEGPGGYQLFGRTVQMWNAWRTTPVFTPGHPWLLRFFDQIRFFPVSEQELIEAREAFPHGRYPVRIEETTFDYAQHAAFLAAERPAIEAAKARQQTAFEVERQDWKARGLDSFVVEDGPAASDADVPEGQTPVEAQVTGNVWKIIAEEGTNVAAGDIVVIVESMKMEMEIRSPVAGKVTALRCQPGRTVQAGQIVALIEAA

How the values were obtained:
Clo SugE = type: binding, Clostridiales bacterium oral taxon 876
purified protein [1] = substrate: NC(N)=O; assay: purified protein
purified protein [2] = substrate: N=C(N)N; assay: purified protein

Molecule | Kd (Clo SugE) | Km (purified protein [1]) | Km (purified protein [2])
N=C(N)N [guanidine] | ~1000 µM | – | –
B1 | – | 5200 µM | 190 µM
